Measurements as given in publication PMC9545174, “Discovery and characterization of SARS-CoV-2 reactive and neutralizing antibodies from humanized CAMouse^HG mice through rapid hybridoma screening and high-throughput single-cell V(D)J sequencing” (Frontiers in Immunology, 2022).

What was measured:
[1] = molecular target: T1, wildtype SARS-CoV-2 RBD Protein (Severe acute respiratory syndrome …, UniProt P0DTC2); test: SPR; details: both partners purified
[2] = molecular target: T1, wildtype SARS-CoV-2 RBD Protein; test: BLI; details: both partners purified

| Binder | Kd [1] | binding result [2] |
| --- | --- | --- |
| 18-4A (antibody, V domains shown) VH: QVQLQQSGPGLVKPSQTLSLTCAISGDSVSNNSAAWNWIRQSPSRGLEWLGRTYYRSKWYNDYAVSVSSRITINPDTSKNQFSLQLNSVTPEDTAVYYCAREGALLWFGEGAFDYWGQGTLVTVSS VL: EIVLTQSPGTLSLSPGERATLSCRASHIVSSSYLAWYQQKPGQAPRFLIYGASSRATGIPDRFSGSGSGTDFTLTISRLEPEDFAVYYCQQYAGSPFTFGPGTKVDIK | 0.234 nM |  |
| 11-2G (antibody, V domains shown) VH: QVQLQQAGPGLVKPSQTLSLTCAISGDSVSNNSAIWNWIRQSPSRGLEWLGRTYYRSKWYNDYAVSVSSRITINPDTSKNQFSLQLNSVTPEDTAVYYCARVDILTGYSFDYWGQGTLVTVSS VL: EIVLTQSPGTLSLSPGERATLSCRASQSVSSSFLAWYQQKPGQAPRFLIYGESYRATGIPDRFSGSGSGTDFTLTISRLEPEDFAVYYCQQYGSSLTFGGGTKVEIK | 0.451 nM |  |
| 4-1B (antibody, V domains shown) VH: QVQLQQSGPGLVKPSQTLSLTCAISGDSVSNNSAAWNWIRQSPSRGLEWLGRTYYRSKWYNDYAVSVSSRITINPDTSKNQFSLQLNSVTPEDTAVYYCARGVYGSGPHAFDIWGQGTMVTVSS VL: EIVLTQSPGTLSLSPGERATLSCRASQSVSSSFLAWYQQKPGQAPRFLIYVTSNRATGIPDRFSGSGSGTDFTLTISRLEPEDFAVYYCQQYGSSLTFGGGTKVEIK |  | binds |
| 4-2D (antibody, V domains shown) VH: QVQLQQSGPGLVKPSQTLSLTCAISGDSVSNNSAAWNWIRQSPSRGLEWLGRTYYRSKWYNDYAVSVSSRITINPDTSKNQFSLQLNSVTPEDTAVYYCARGLWIPYYYGMDVWGQGTTVTVS VL: EIVLTQSPGTLSLSPGERATLSCRASQSVSNIFLAWYQQKPGQAPRFLIYGESSRATGIPDRFSGSGSGTDFTLTISRLEPEDFAVYYCQQYGSSLTFGPGTKVDIK |  | binds |
| 15-11F (antibody, V domains shown) VH: QVQLQQSGPGLVKPSQTLSLTCAISGDSVSNNSAAWNWIRQSPSRGLEWLGRTYYRSKWYNDYAVSVSSRITINPDTSKNQFSLQLNSVTPEDTAVYYCARFSRLLGYGMDVWGQGTTVTVS VL: EIVLTQSPGTLSLSPGERATLSCRASQSVISSYLSWYQQKPGQAPRFLIYGAASRATGIPDRFSGSGSGTDFTLTISRLEPEDFAVYYCQQYGSSLTFGGGTKVEIK |  | binds |
